Reference: patent US20210101970A1 (Pfizer, published 2021)

T1: mouse CXCR5 (mouse, UniProt Q04683 1-374)
T1 construct: also called mCXCR5
T1 sequence: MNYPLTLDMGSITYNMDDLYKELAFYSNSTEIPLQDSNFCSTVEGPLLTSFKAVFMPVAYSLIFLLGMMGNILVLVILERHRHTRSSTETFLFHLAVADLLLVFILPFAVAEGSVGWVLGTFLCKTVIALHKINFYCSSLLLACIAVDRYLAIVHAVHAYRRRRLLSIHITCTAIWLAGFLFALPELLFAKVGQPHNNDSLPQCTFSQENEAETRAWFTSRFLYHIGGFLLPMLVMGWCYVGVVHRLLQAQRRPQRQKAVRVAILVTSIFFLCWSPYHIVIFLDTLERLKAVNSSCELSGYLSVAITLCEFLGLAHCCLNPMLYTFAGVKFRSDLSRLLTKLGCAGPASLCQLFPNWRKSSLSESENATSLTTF

T2: human CXCR5 (human, UniProt P32302 1-372)
T2 sequence: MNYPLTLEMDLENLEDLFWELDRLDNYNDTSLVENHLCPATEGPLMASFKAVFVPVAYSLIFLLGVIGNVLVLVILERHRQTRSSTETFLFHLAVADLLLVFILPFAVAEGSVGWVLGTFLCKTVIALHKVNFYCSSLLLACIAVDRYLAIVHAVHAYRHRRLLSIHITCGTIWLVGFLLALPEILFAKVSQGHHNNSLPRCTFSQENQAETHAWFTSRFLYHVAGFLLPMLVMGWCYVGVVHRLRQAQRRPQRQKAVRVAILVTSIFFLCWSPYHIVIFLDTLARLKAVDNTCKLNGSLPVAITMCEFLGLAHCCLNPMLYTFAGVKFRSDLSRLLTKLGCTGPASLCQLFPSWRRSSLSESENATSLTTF

T3: cynomolgus monkey CXCR5 (cynomolgus monkey, UniProt P32302 1-372 (human entry))
T3 construct: also called cynoCXCR5; NHP CXCR5
T3 chain: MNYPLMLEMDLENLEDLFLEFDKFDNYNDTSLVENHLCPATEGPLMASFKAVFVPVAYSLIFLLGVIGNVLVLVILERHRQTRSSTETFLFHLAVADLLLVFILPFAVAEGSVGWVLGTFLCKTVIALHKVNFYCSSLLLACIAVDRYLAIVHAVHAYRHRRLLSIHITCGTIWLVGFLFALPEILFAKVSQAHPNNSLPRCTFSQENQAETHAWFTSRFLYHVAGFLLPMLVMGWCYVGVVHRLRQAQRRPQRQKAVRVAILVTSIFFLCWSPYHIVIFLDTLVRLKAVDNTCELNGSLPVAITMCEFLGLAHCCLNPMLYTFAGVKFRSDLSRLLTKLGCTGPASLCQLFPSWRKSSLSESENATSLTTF

T4: XC281 (human, UniProt P32302 2-372)
T4 construct: also called hCXCR5 D22A
T4 sequence: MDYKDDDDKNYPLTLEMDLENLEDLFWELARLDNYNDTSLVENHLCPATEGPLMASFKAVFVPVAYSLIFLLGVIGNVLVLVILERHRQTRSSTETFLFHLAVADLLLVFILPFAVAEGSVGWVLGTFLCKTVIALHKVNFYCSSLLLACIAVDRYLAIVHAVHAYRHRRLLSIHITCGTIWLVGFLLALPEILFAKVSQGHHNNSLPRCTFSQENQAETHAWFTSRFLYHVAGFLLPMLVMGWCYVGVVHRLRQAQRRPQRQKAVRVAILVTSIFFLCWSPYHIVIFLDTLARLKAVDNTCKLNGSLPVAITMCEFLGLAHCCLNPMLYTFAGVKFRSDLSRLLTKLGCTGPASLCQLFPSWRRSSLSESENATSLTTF

T5: XC278 (human, UniProt P32302 2-372)
T5 construct: also called hCXCR5 L11T
T5 sequence: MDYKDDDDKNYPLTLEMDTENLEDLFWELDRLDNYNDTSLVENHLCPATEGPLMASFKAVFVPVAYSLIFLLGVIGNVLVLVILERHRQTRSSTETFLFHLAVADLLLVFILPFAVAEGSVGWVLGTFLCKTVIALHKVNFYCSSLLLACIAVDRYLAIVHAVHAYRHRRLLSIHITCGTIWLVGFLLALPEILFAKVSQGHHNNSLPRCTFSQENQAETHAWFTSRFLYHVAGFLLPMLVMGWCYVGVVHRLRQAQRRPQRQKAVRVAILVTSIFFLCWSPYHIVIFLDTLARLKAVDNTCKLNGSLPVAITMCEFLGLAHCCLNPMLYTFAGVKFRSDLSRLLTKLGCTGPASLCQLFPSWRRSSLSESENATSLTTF


What was measured:
mouse CXCR5 = biological target: T1, mouse CXCR5; assay: FACS on cells expressing the CXCR5 construct; also: test concentration or dose not given here
XC252 = biological target: T6, XC252; assay: FACS on cells expressing the CXCR5 construct; also: test concentration or dose not given here
T6 construct: whole, on cells; also called hCXCR5-mL2

XC256 = biological target: T7, XC256; assay: FACS on cells expressing the CXCR5 construct; also: test concentration or dose not given here
T7 construct: whole, on cells; also called hCXCR5-mN-mL2

human CXCR5 [1] = biological target: T2, human CXCR5; assay: cell-based or functional assay
cynomolgus monkey CXCR5 = biological target: T3, cynomolgus monkey CXCR5; assay: flow cytometry on cynoCXCR5-300.19 cells, fucosylated chimeric antibody
XC281 = biological target: T4, XC281; assay: flow cytometry on HEK-293T cells transiently expressing the FLAG-tagged mutein; ratio of gMFI of the antibody to gMFI of anti-FLAG PE
Experimental: (§1) The cells were analyzed by flow cytometry using an Accuri (BD Biosciences Franklin Lakes, N.J.). The geometric mean fluorescence intensity (gMFI) was determined and the ratio for the gMFI of each CXCR5 antibody and anti-flag was calculated.

XC278 = biological target: T5, XC278; assay: as above
Experimental: as §1

human CXCR5 [2] = biological target: T2, human CXCR5; assay: flow cytometry, B cells from human PBMCs (FIG. 5); afucosylated

Row | Binder | GMFI (mouse CXCR5) | GMFI (XC252) | GMFI (XC256) | Ca2+ flux IC50 (human CXCR5 [1]) | EC50 (cynomolgus monkey CXCR5) | binding result (XC281) | binding result (XC278) | EC50 (human CXCR5 [2])
1 | 2C9 (reference antibody) (antibody, human IgG1, kappa, V domains shown, fucosylated) VH: EVQLVESGGGLVKPGGSLRLSCAASGFTFSTNAMNWVRQAPGKGLERVARIRSKSNNYATYYADSVKDRFTISRDDSKNTLYLQMNSLKTEDTAVYYCVTMIPFAYWGQGTLVTVSS VL: not shown | 1180 GMFI | 22400 GMFI | 1970 GMFI | 3.49 nM | – | – | – | –
2 | Chimeric 11G2 (antibody, human IgG1, kappa, V domains shown, mouse V regions on human IgG1/kappa; also called 11G2 (chimeric)) VH: EVKLVESGGGLVQPGGSLRLSCATSGFTFTDFYMSWVRQPPGRALEWLGFIRNKANGYTTEYSASVKGRFTISRDNSQSILYLQMNTLRAGDSATYYCVRVYGSTLHYWGQGTILTVSS VL: DVVVTQSPDSLAVSLGQRATISCRASESVEYHGTSLMHWYQQKPGQPPKLLIYAASNVESGVPARFSGSGSGTDFSLNIHPVEEGDIAMYFCQQSRKVPWTFGGGTKLEIKR | – | – | – | – | 0.0242 nM | – | – | –
3 | Afucosyl humanized 11G2 154/155 (antibody, human IgG1, kappa, V domains shown, afucosylated Fc glycan (Asn297), also called afucosyl h11G2 XC154/XC155; afucosylated h11G2 VL XC154/VH XC155) VH: EVQLVESGGGLVQPGGSLRLSCAASGFTFTDFYMSWVRQAPGKGLEWVGFIRNKANGYTTEYSASVKGRFTISRDNAKNSLYLQMNSLRAEDTAVYYCARVYGSTLHYWGQGTLVTVSS VL: DIQMTQSPSSLSASVGDRVTITCRASESVEYHGTSLMHWYQQKPGKAPKLLIYAASNVESGVPSRFSGSGSGTDFTLTISSLQPEDFATYYCQQSRKVPWTFGQGTKVEIKR | 901 GMFI | 21600 GMFI | 1260 GMFI | – | – | no binding (tested: 1 or 3 µg/ml (not on the sheet)) | no binding (tested: 1 or 3 µg/ml (not on the sheet)) | 0.0119 nM
